The source of these data is US9046524B1, “Method to quantify and measure excess colipase in a pancreatin active pharmaceutical ingredient” (Scientific Protein Laboratories, LLC, priority 2012, dated 2015).

Assay type in all cases: biochemical
Data set [1] addresses T1, lipase (Sus scrofa, UniProt P00591).
T1 construct: purchased USP Rockville, Md; 1494079
T1 sequence (P00591 1-450): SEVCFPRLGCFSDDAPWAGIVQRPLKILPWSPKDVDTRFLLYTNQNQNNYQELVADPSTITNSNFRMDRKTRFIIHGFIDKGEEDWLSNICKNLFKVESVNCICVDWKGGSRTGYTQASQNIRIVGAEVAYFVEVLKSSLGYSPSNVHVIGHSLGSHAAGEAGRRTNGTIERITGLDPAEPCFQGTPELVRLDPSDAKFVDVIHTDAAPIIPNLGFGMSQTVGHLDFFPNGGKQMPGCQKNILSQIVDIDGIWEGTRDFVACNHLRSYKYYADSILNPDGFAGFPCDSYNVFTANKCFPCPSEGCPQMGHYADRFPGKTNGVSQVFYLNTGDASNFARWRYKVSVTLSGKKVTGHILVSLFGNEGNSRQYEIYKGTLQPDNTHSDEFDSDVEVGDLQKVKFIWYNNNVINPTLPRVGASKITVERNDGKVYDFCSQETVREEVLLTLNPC
In words: Bile salt (Na-TDC) inhibition of lipase activity against tributyrin. The method, then: Lipase activity against tributyrin is assayed with different concentration of TDC to determine the CMC for inhibition. The minimum TDC concentration to achieve sufficient inhibition of lipase activity is determined. Five different concentrations (1, 4, 8, 12 and 16 mM) of sodium taurodeoxy-cholate (Na-TDC) are used to determine the CMC of bile salt on two concentrations of lipase (2.5 and 5.0 μg/mL). […] As shown also in FIG. 4, increasing the concentration of bile salt above the CMC results in a progressive inhibition of lipase activity (4-16 mM Na-TDC). […] The lipase inhibition with higher concentration of bile salt (above CMC) is more consistent with the lipase at 5.0 μg/mL when compared to 2.5 μg/mL lipase (FIG. 4).

Another data set concerns the target T2, pancreatin lipase (Sus scrofa, UniProt P00591).
T2 construct: purchased USP Rockville, Md; 1494079; host or cells: also pancreatin API samples #1, #2, #3 (pancreas extract)
T2 sequence (P00591 1-450): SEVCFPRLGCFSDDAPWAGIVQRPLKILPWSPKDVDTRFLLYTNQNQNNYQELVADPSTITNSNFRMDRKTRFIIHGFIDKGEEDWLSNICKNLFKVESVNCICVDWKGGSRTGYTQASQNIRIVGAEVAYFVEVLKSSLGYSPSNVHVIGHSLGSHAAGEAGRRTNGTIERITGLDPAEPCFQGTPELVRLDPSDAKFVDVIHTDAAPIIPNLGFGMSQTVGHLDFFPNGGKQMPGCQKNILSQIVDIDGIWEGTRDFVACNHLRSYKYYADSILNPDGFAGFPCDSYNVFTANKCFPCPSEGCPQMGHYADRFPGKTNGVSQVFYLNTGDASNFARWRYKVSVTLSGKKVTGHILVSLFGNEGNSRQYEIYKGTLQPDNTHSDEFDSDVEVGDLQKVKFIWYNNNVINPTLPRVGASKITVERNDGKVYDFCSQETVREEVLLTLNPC
Description: Orlistat inhibition of lipase activity on GTB substrate. Conditions: 1.0 μM Lipase:Orlistat equal molar, 5 minutes on ice; USP Lipase and pancreatin samples #1, #2, #3; 1 mM Na-TDC.

For data set [2], the target named is T3, lipase (Sus scrofa, UniProt P00591).
T3 construct: from tissue; host or cells: pancreatin API batches (pancreas extract)
T3 sequence (P00591 1-450): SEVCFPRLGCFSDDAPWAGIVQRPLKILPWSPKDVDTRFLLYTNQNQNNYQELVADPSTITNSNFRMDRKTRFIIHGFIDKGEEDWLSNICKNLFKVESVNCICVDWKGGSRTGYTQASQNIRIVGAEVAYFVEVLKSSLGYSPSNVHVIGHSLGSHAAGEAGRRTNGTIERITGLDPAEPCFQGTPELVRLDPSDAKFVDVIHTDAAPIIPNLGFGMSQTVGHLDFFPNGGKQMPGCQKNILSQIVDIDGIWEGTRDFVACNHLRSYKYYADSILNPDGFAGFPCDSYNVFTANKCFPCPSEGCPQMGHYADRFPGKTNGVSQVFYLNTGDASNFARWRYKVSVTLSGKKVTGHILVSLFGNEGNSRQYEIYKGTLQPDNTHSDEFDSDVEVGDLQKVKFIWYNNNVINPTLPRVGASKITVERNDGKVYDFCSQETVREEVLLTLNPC
T3 sequence (P02703 23-112 partner): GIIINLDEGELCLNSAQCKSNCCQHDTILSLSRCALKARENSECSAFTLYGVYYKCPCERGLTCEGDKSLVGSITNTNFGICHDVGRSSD
Description: Reactivation of bile salt-inhibited lipase by added colipase. How it is done:
In yet another embodiment, the effect of colipase on lipase activity and determination of the optimum concentration of colipase to measure the restored lipase activity is studied. The method for colipase determination is based on the principle that lipase inactivated by bile salt is reactivated by colipase (FIG. 1). FIG. 4 supports the theory of reactivation of lipase with the addition of exogenous colipase. As such, different concentrations of bile salt (0, 4, 8, 12 and 16 mM) are tested in the presence of 5.0 μg of lipase per reaction to measure the lipase activity. To each reaction beaker, a different amount of colipase (2.5, 5.0 and 10 μg) is added to the assay mixture prior to the lipase.
However, by adding different concentration of exogenous colipase (Sigma Cat #C3028), lipase activity is restored. In FIG. 5, 2.5 μg colipase, 5.0 μg colipase, and 10.0 μg colipase bars with 4, 8, 12 and 16 mM Na-TDC represent the lipase activity due to reactivation of lipase from addition of exogenous colipase. The presence of colipase at higher concentration will inhibit lypolysis. […] Although the main function of colipase is to restore the activity of the bile salt-inhibited lipase, colipase also has been reported to affect the activity of lipase in absence of bile salts by stabilizing lipase and decreasing its rate of inactivation in the presence of substrate (see Borgstrom and Brockman, 1984). […] Results reveal the most favorable amount of colipase to recover the inhibited lipase is 2.5 μg per assay with 4 mM Na-TDC.
In still another embodiment, a separate study is performed with differing amounts of lipase (2.5, 5.0 and 10 μg per reaction) to determine the maximum recovery of lipase activity in the presence of 4 mM Na-TDC and 2.5 μg added colipase. The colipase content of the sample is determined as a difference between two titration values, the blank with lipase and the test with lipase plus added colipase (test values−blank values). The accuracy of the determination is dependent on the relative proportion between lipase and colipase.
The activity in the absence of added colipase increases with increase in lipase amount, due to presence of endogenous colipase. Further, the lipase activity increases by adding exogenous colipase.

Description for pancreatin lipase: To check the specificity of the substrate GTB, an inhibition experiment is conducted with the specific inhibitor Orlistat (Tetrahydrolipstatin, THL, Sigma #04139). […] To check the specificity of GTB substrate, bile salt below CMC concentration (1 mM Na-TDC) is chosen to obtain maximum lipase activity.
The Orlistat is dissolved in dimethyl sulfoxide (DMSO) to obtain 1.0 mg/mL stock solution. Lipase (USP) and pancreatin samples #1, #2 and #3 are mixed with Orlistat at equal molar concentrations (1.0 μM Lipase:Orlistat) and incubated for 5 minutes on ice. The assays are performed on USP Lipase and pancreatin API samples with and without Orlistat. All the samples are titrated with 0.005 M NaOH for 5 minutes in a glass mixing chamber with 30 mL of substrate mix containing 1 mM Na-TDC at 37° C. temperature and pH 7.5.

For `C[C@H](CCC(=O)NCCS(=O)(=O)[O-])[C@H]1CC[C@H]2[C@@H]3CC[C@@H]4C[C@H](O)CC[C@]4(C)[C@H]3C[C@H](O)[C@]12C.O.[Na+]` [Na-TDC, sodium taurodeoxycholate hydrate], the “effect on lipase activity below CMC” value at lipase [1] (1 mM Na-TDC compared to 0 mM) is reported as “enhancement in lipase activity”. In addition, at lipase [1] (4, 8, 12 & 16 mM Na-TDC, lipase 2.5 and 5.0 μg/mL), the “effect on lipase activity above the CMC” value was “almost complete inhibition of lipase activity”.
With `CCCCCCCCCCC[C@@H](C[C@@H]1OC(=O)[C@H]1CCCCCC)OC(=O)[C@H](CC(C)C)NC=O` [Orlistat], the “inhibition of lipase activity” value at pancreatin lipase was found to be 90%.

B1: colipase: Colipase Standard: Sigma Colipase from porcine pancreas Cat #C3028 (protein, UniProt P02703 23-112, looked up)
Colipase: GIIINLDEGELCLNSAQCKSNCCQHDTILSLSRCALKARENSECSAFTLYGVYYKCPCERGLTCEGDKSLVGSITNTNFGICHDVGRSSD
Consider B1, for which, in the data set with lipase [2] (2.5 μg colipase, 4 mM Na-TDC, 10.0 μg lipase), the restored lipase activity is 0.23 fold. Further, the “increase in restored lipase activity” value in the data set with lipase [2] (2.5 μg colipase, 4 mM Na-TDC, 2.5 and 5.0 μg of lipase) was “two-fold”. Further, the “increase in lipase activity by addition of colipase” value with lipase [2] (2.5 μg colipase, without bile salt, 5.0 μg lipase) was “about 1.5 fold”. Also, the “restored lipase activity with 5 and 10 μg colipase, fold lower than with 2.5 μg colipase” value with lipase [2] (16 mM TDC) is listed as 4 fold.
